Assay results taken from article PMC11948038, “Evolutionary Pro‐To‐Thr Mutation in the Intrinsically Disordered Domain of ANP32 Family Members Modulates Their Target Binding Modes” (Advanced Science, 2025).
Blank lines part the entries; values can stand above or below the molecule they belong to. Ends that are not written are not given here.

Legend:
[1] = tested on: Heltog cells (HeLa cells constitutively expressing Cc-GFP); experiment: Subcellular localization of Cc-GFP and ANP32A in Heltog cells after camptothecin; format: cell-based; details: 20 µM CPT, 1 or 4 h, confocal microscopy
Description: After 1 h or 4 h of CPT treatment, nuclei were stained by incubating cells with 1 µg mL^−1 Hoechst (Sigma‐Aldrich) for 10 min at 37 °C. Cells were then rinsed in pre‐warmed PBS at 37 °C to remove media traces, fixed by immersing the coverslips in a 4% formaldehyde (Sigma‐Aldrich) solution prepared in PBS for 10 min at room temperature, and then washed in pre‐warmed PBS at 37 °C. Cells were dried by incubating the coverslips in absolute ethanol for 2 min. Afterward, coverslips were mounted into glass slides using N‐propyl gallate (Sigma‐Aldrich), to preserve the fluorescence, and sealed with nail polish. Images were obtained in a Zeiss LSM 7 DUO confocal microscope using a 63× oil objective. For calcium phosphate transfection, 2.5 × 10^6 HEK293T cells were cultured in 150 mm diameter plates. After 72 h of growth, media was refreshed prior to transfection. For subcellular localization assays; 50,000 Heltog cells were grown over coverslips placed in 15.6 mm well plates for 24 h before transfection. DNA damage was then induced by replacing media for one containing 20 µM of camptothecin (CPT) and incubating cells for 1 h or 4 h. […] Afterwards, coverslips were mounted into glass slides using N-propyl gallate (Sigma-Aldrich), to preserve the fluorescence, and sealed with nail polish. […]

[2] = target: T1, cytochrome c (Homo sapiens, UniProt P99999); experiment: ITC titration of full-length ANP32A or ANP32A1-167 with reduced Cc; format: binding; details: for Kd: relative error 20%; for n (reaction stoichiometry): error 0.03; for ΔG: error 0.1 kcal/mol
T1 construct: obtained by immunizing male rabbits with full-length recombinant Cc; made in house; host or cells: E. coli BL21 (DE3)
Description: Isothermal titration calorimetry (ITC) experiments were performed using a Nano ITC Low Volume instrument (TA Instruments, USA). The reference cell was filled with distilled water. Titration experiments between reduced Cc and ANP32A or ANP32A1‐167 consisted of 17 injections of 2.91 µL of a 400 µM reduced Cc solution into the sample cell containing 50 µM ANP32A construct. Both Cc and ANP32A proteins were dialyzed against 10 mM sodium phosphate buffer pH 7.4. Assays performed at moderate ionic strength used the same experimental setup, but proteins were dialyzed against 20 mM sodium phosphate pH 7.4 with 50 mM NaCl. Assays using ANP32A230‐249 or ANP32B232‐251 peptides were performed by titrating 1 mM peptide solution onto 110 or 150 µM reduced Cc solutions, respectively, or onto 100 µM HuR106‐326 solution, following the same injection configuration as described for ANP32A proteins. Cc and HuR106‐326 solutions were dialyzed against 10 mM sodium phosphate buffer pH 6.3; peptides were dissolved in the same solution. The stirring speed was set to 200 rpm for HuR106‐326 titration experiments and to 300 rpm for Cc titration experiments, to ensure cell homogeneity. ANP32A, ANP32A230‐249 and ANP32B232‐251 titration data were analyzed using Origin 7.0 (OriginLab), employing a single‐ligand binding site model or a two‐ligand binding sites model. In the last case, no binding cooperativity was observed. ANP32A1‐167 titration data was processed and analyzed using NanoAnalyze software (TA instruments).
ITC experiments were performed using a Nano ITC Low Volume instrument (TA Instruments, USA). The reference cell was filled with distilled water. Titration experiments between reduced Cc and ANP32A or ANP32A1-167 consisted of 17 injections of 2.91 µL of a 400 µM reduced Cc solution into the sample cell containing 50 µM ANP32A construct. Both Cc and ANP32A proteins were dialyzed against 10 mM sodium phosphate buffer pH 7.4. Assays performed at moderate ionic strength used the same experimental setup, but proteins were dialyzed against 20 mM sodium phosphate pH 7.4 with 50 mM NaCl. Assays using ANP32A230-249 and ANP32B232-251 peptides were performed by titrating 1 mM peptide solution onto 110 or 150 µM reduced Cc solutions, respectively, or onto 100 µM HuR106-326 solution, following the same injection configuration as described for ANP32A proteins. Cc and HuR106-326 solutions were dialyzed against 10 mM sodium phosphate buffer pH 6.3; peptides were dissolved in the same solution. The stirring speed was set to 200 rpm for HuR106-326 titration experiments and to 300 rpm for Cc titration experiments, to ensure cell homogeneity. ANP32A, ANP32A230-249 and ANP32B232-251 titration data was analyzed using Origin 7.0 (OriginLab), employing a single ligand binding site model or a two ligand binding sites model. In the last case, no binding cooperativity was observed. ANP32A1-167 titration data were processed and analyzed using NanoAnalyze software (TA instruments).

[3] = tested on: histone H3; experiment: Coimmunoprecipitation of c-myc-ANP32A/B with histone H3; format: binding; details: anti-c-myc, Western blot; representative of three experiments
Description: HEK293T cells were transfected with a plasmid encoding ANP32A/b-c-myc. 24 h after transfection, cells were collected for lysates preparation in buffer containing 20 mM Tris-HCl pH 7.5, 100 mM NaCl, 0.5% NP40, 0.1 mM PMSF and cOmplete™. Cells were lysed by sonication and precleared by incubation with sepharose-A beads (GE Healthcare, GE17-5280-01) for 1 h at 4 °C. The lysates were then incubated with anti-c-myc (see Pull-down assays) over night at 4 °C and subsequently with sepharose-A beads (GE Healthcare, GE17-5280-01) for 1 h at room temperature with rotation. Following 6 washes with PBS, the samples were resuspended in SDS loading buffer and analyzed by western blotting.

[4] = tested on: recombinant Cc; experiment: Cc pulldown assay with HEK293T extracts; format: binding; details: HEK293T extracts expressing ANP32A-c-myc, Western blot
Description: Pulldown assays were performed as previously described.^[ [31] ^] Briefly, transfected HEK293T cells were resuspended in a lysis buffer containing 10 mM Tricine‐NaOH pH 8.5, 1 mM PMSF, and cOmplete protease inhibitors (Roche). Afterward, cells were lysed by sonication (10 s, 10% amplitude, on ice), and the resulting debris was discarded after 15 min of centrifugation at 13300 rpm and 4 °C. More details on the procedure were given in the Supporting Information Appendix.
Pulldown assays were performed as previously described ^[6^]. Briefly, transfected HEK293T cells were resuspended in a lysis buffer containing 10 mM Tricine-NaOH pH 8.5, 1 mM PMSF and cOmplete™ protease inhibitors (Roche). Afterwards, cells were lysed by sonication (10 s, 10% amplitude, on ice), and the resulting debris was discarded after 15 min of centrifugation at 13,300 rpm and 4 °C.
Cc pulldown assays were carried out by incubating cell extracts with 100 µg of recombinant Cc for 16 h at 4 °C in batch. A carboxymethylcellulose matrix (Whatman) was added, and the mixture was incubated for 30 min at 4 °C in batch. To remove possible non-specific binding, the matrix was washed 3 times with 1 mL of washing buffer containing 10 mM Tricine-NaOH pH 8.5, 20 mM NaCl, 1 mM PMSF and cOmplete™ protease inhibitors. […]

[5] = tested on: 15N-labeled Cc; experiment: NMR titration (1H-15N HSQC) of 15N Cc with ANP32A or ANP32A1-167; format: binding; details: low ionic strength; 25 °C
Description: NMR titrations of 30 µM ^15N reduced Cc with ^14N ANP32A constructs were followed by 1D ^1H and 2D ^1H-^15N heteronuclear single quantum correlation (HSQC) spectra on a Bruker Avance-III 600 MHz equipped with a cryoprobe at 25 °C. ^15N-labelled reduced Cc (in 10 mM sodium phosphate buffer, pH 7.4) was titrated with increasing amounts of ^14N ANP32A dialyzed against the same buffer. Reduced ^15N Cc and ^14N ANP32A1-167 construct were titrated in 5 mM sodium phosphate buffer pH 6.4. To maintain the redox state of Cc and to adjust the lock signal on the NMR spectrometer, 0.1 mM of sodium ascorbate and 10% of D2O were added, respectively. Data were acquired and processed using TopSpin NMR 3.5pl7 software (Bruker).
Line broadening and chemical-shift perturbation analysis were performed using the Sparky 3 NMR assignment tool (T.D. Goddard and D.G. Kneller, University of California San Francisco, USA). Assignment of ANP32A230-249 and ANP32B232-251 peptides was performed using NMRFAM-SPARKY software distribution (National Magnetic Resonance Facility at Madison) and further imported to CCPNMR ^[1], whereby distance restraints were calculated using its built-in module.

[6] = target: T1, cytochrome c; experiment: ITC titration of ANP32A/B C-terminal peptides with reduced Cc; details: single binding-site model; 1 mM peptide onto 110 or 150 µM reduced Cc; 10 mM sodium phosphate pH 6.3; relative error 20%
Description: Isothermal titration calorimetry (ITC) experiments were performed using a Nano ITC Low Volume instrument (TA Instruments, USA). The reference cell was filled with distilled water. Titration experiments between reduced Cc and ANP32A or ANP32A1‐167 consisted of 17 injections of 2.91 µL of a 400 µM reduced Cc solution into the sample cell containing 50 µM ANP32A construct. Both Cc and ANP32A proteins were dialyzed against 10 mM sodium phosphate buffer pH 7.4. Assays performed at moderate ionic strength used the same experimental setup, but proteins were dialyzed against 20 mM sodium phosphate pH 7.4 with 50 mM NaCl. […] ANP32A, ANP32A230‐249 and ANP32B232‐251 titration data were analyzed using Origin 7.0 (OriginLab), employing a single‐ligand binding site model or a two‐ligand binding sites model. […] ANP32A1‐167 titration data was processed and analyzed using NanoAnalyze software (TA instruments).
ITC experiments were performed using a Nano ITC Low Volume instrument (TA Instruments, USA). […] ANP32A, ANP32A230-249 and ANP32B232-251 titration data was analyzed using Origin 7.0 (OriginLab), employing a single ligand binding site model or a two ligand binding sites model. […] ANP32A1-167 titration data were processed and analyzed using NanoAnalyze software (TA instruments).

[7] = low ionic strength 25 mM, first listed of two independent sites, 10 mM sodium phosphate pH 7.4
[8] = low ionic strength 25 mM, second listed of two independent sites, 10 mM sodium phosphate pH 7.4
[9] = moderate ionic strength 100 mM, single site, 20 mM sodium phosphate pH 7.4, 50 mM NaCl
[10] = moderate ionic strength 100 mM, single site, 20 mM sodium phosphate pH 7.4, 50 mM NaCl, error 0.4 kcal/mol

T1 sequence (P99999 whole entry): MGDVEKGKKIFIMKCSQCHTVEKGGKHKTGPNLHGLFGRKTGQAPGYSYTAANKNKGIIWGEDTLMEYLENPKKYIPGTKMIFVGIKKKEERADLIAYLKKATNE

Molecule: CC[C@@]1(O)C(=O)OCc2c1cc1n(c2=O)Cc2cc3ccccc3nc2-1 [camptothecin]
Cc-GFP localization after camptothecin, in words [1]: Cc‐GFP translocated into the cell nucleus

n (reaction stoichiometry) [2, 9]: 0.60
ΔG [2, 9]: -6.1 kcal/mol
ΔH [2, 10]: 1.5 kcal/mol
–TΔS [2, 10]: -7.6 kcal/mol
Kd [2, 9]: 32 µM
binding to Cc by ITC, in words ([2]; moderate ionic strength (100 mM)): one of the two binding sites was lost
Molecule: ANP32A: full-length recombinant acidic leucine‐rich nuclear phosphoprotein 32 A, histone chaperone
Kd ([2]; low ionic strength 25 mM, first listed of two independent sites, 10 mM sodium phosphate pH 7.4, 400 µM reduced Cc into 50 µM ANP32A): 3.6 µM
n (reaction stoichiometry) [2, 7]: 0.65
ΔG [2, 7]: -7.4 kcal/mol
ΔH ([2]; low ionic strength 25 mM, first listed of two independent sites, 10 mM sodium phosphate pH 7.4, error 0.4 kcal/mol): 0.4 kcal/mol
Kd ([2]; low ionic strength 25 mM, second listed of two independent sites, 10 mM sodium phosphate pH 7.4, 400 µM reduced Cc into 50 µM ANP32A): 34 µM
n (reaction stoichiometry) [2, 8]: 0.65
ΔG [2, 8]: -6.1 kcal/mol
binding to Cc by ITC, in words ([2]; low ionic strength (25 mM)): two molecules of Cc bind the ANP32A LCAR at independent binding sites, with no observed cooperativity
coimmunoprecipitation of histone H3, in words [3]: H3 binds both ANP32 proteins in a similar manner
Cc pulldown result, in words [4]: Cc interacts with ANP32A
chemical-shift perturbations of Cc amide signals, in words [5]: specific chemical‐shift perturbations and substantial broadening

Kd [6]: 190 µM
Molecule: EEERGEKRKRETEDEGEDDD [ANP32A230‐249 Q235E/P241T]

Kd [6]: 190 µM
Molecule: EEERGQKRKRETEDEGEDDD [ANP32A230‐249 P241T]
